The values that follow are results of earlier work, collected in publication PMC4065351.

For orientation: pKa means the negative logarithm of the acid dissociation constant.

For the data set, the system named is Cys2 (position 2, ----ECG----). The following applies: free reduced glutathione.

In the case of “Glutathione (GSH, gamma-L-glutamyl-L-cysteinylglycine) (not applicable (ubiquitous low-molecular-weight thiol))”, the pKa is given as 8.93.
